Assay results as given in article PMC12423313, “Protein-based tools for the detection and characterisation of Oropouche virus infection” (EMBO Molecular Medicine, 2025).

B3: OROV Gc spike region (residues 482-894 of the M polyprotein), recombinant, strain BeAn19991 (domain or fragment, Oropouche virus strain BeAn19991)
chain: DEDCLSKDIKITYQELHNCIGPKIMGDTCVSKSELYSDLFSKNLVTEYDKKYFEPDTVNDQFNKIEFAQDAHRMILLERILYKTECEMLSLKKNSGPYNVAWRTYFKNHNIDLCSRHNYKMICQCINTHSMCKNTDIDYNKEIETYYKSNAAAYRADLNTIMDTLKTAFRGLTKVLIENYIEKDDSDALKALFSNITDSVQDNYQMIGILKFASKLLDINLGRSTRSAHHSIMTNEIPKSNPFTDYSYSNLNIKECMSPESLKCFKKRDSTPHTNHLLCKIDNKYKAFDWPEIETIQKGQKLCLGDSHCNLEFTAITADKIMSLTNCYKESFTAQPADMQAGIKKCSADEIGECTTLEDKTWPIIFCGGKYYYSDSKEHAKDGSINNYCLTNKCSEQRFPIHENWFKKCNWDK
notes: Gc spike region (head and stalk domains) of the M polyprotein of Oropouche virus strain BeAn19991, GenBank AJE24679.1, residues 482-894; also called Gc spike domain

Legend:
[1] = biological target: T1, OROV nucleoprotein (N) of strain BeAn19991, native, in virus stocks and infected cells (Oropouche virus strain BeAn19991); assay: ELISA; sandwich ELISA with nanobodies, […]; conditions: one partner purified
T1 construct: N protein of Oropouche virus strain BeAn19991, GenBank AJE24680.1, as made by the virus; also called OROV BeAn19991
T1 chain: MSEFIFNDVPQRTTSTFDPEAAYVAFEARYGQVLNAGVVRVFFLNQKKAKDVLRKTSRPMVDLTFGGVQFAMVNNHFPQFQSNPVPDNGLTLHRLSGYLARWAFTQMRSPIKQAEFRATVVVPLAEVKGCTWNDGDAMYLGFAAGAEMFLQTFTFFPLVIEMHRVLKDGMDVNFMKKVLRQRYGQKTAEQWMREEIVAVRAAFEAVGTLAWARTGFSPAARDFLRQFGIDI

[2] = biological target: T2, OROV nucleoprotein (N) of strain TRVL, native, in virus stock (Oropouche virus strain TRVL (stand-in: …, strain)); assay: ELISA; sandwich ELISA with nanobodies, […]; conditions: one partner purified
T2 construct: N protein of Oropouche virus strain TRVL (Anderson et al, 1961); also called OROV TRVL
T2 chain: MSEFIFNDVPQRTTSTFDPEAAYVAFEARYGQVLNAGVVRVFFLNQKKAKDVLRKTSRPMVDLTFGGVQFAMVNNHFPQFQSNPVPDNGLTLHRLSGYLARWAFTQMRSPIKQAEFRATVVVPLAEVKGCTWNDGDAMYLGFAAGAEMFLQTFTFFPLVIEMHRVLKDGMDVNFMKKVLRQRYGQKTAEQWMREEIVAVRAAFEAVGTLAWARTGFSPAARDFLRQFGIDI

[3] = biological target: T3, OROV nucleoprotein (N), recombinant, strain BeAn19991 (Oropouche virus strain BeAn19991); assay: ELISA; conditions: both partners purified
T3 chain: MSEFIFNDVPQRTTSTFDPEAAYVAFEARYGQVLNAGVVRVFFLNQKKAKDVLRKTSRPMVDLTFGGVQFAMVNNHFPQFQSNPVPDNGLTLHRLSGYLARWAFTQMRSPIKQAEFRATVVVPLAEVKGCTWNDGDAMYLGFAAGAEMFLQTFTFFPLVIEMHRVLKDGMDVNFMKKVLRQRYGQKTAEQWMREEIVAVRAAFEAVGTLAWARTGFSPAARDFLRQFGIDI

[4] = biological target: T1, OROV nucleoprotein (N) of strain …; assay: immunostaining of cells or tissue; conditions: one partner purified
[5] = biological target: T4, OROV nucleoprotein (N) of the 2023-4 epidemic isolate AM0088, native (Oropouche virus isolate AM0088, strain); assay: immunostaining of cells or tissue; conditions: one partner purified
T4 construct: also called OROV AM0088 N
T4 chain: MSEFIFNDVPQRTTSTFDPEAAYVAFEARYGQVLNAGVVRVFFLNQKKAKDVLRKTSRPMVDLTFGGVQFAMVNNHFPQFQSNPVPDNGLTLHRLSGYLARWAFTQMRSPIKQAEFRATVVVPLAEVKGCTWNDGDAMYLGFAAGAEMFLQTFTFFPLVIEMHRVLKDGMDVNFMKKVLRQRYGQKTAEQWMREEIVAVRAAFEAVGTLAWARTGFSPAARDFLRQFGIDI

[6] = biological target: T5, nanobody-Fc fusion FcSpB6 (llama); assay: ELISA; conditions: both partners purified
T5 construct: as the VHH of m18; also called FcSpB6-HRP; OROV FcSpB6; not shown: Fc (human IgG1 hinge and Fc domains 2 and 3), C-terminal, kept

[7] = biological target: T6, biotinylated nanobody-Fc fusion bFcSpC7 (C-terminal AviTag) (llama); assay: ELISA; conditions: both partners purified
T6 construct: as the VHH of m20; also called OROV FcSpC7 BAP; not shown: Fc (human IgG1 hinge and Fc domains 2 and 3), C-terminal, kept; AviTag, C-terminal, kept

[8] = biological target: T7, OROV glycoprotein Gc of strain TRVL, native, in virus stock (Oropouche virus strain TRVL (stand-in: …, UniProt A0A0B5CLT0, strain)); assay: ELISA; sandwich ELISA with nanobodies, […]; conditions: one partner purified
T7 construct: also called Gc spike; OROV TRVL

[9] = biological target: T8, OROV glycoprotein Gc of strain BeAn19991, native, in virus stocks and infected cells (Oropouche virus strain BeAn19991, UniProt A0A0B5CLT0); assay: ELISA; sandwich ELISA with nanobodies, […]; conditions: one partner purified
T8 construct: On virus particles Gc stands with Gn; also called Gc spike; OROV BeAn19991

[10] = biological target: B3; assay: ELISA; […], biotinylated nanobody 2 µg/mL, […], room temperature; conditions: both partners purified
[11] = biological target: T8, OROV glycoprotein Gc of strain …; assay: immunostaining of cells or tissue; conditions: one partner purified
[12] = biological target: T9, OROV glycoprotein Gc of the 2023-4 epidemic isolate AM0088, native (Oropouche virus isolate AM0088 …, UniProt A0A0B5CLT0, strain); assay: immunostaining of cells or tissue; conditions: one partner purified
T9 construct: also called Gc spike; OROV AM0088

B1: biotinylated nanobody NpE3 (AviTag-His9) (VHH)
VHH: QVQLVESGGGLVRPGGSLRLSCAASGFTFSNAYMTWIRQAPGKDLEWVSSIYYGDMTSYATSVKGRFTISRDNAKNTLYLQMNNLKPEDSAIYYCTKGDERGQGTQVTVSS
notes: VHH NpE3 from an immunised llama; also called bNpE3; OROV Np Nb E3 BAP H9; not shown: AviTag, C-terminal, kept
binding result [1]: binds | binding result [2]: binds | binding result [3]: binds

B2: AlexaFluor568-conjugated OROV NpE3 nanobody (Cys-His8) (VHH)
VHH: QVQLVESGGGLVRPGGSLRLSCAASGFTFSNAYMTWIRQAPGKDLEWVSSIYYGDMTSYATSVKGRFTISRDNAKNTLYLQMNNLKPEDSAIYYCTKGDERGQGTQVTVSS
notes: as the VHH of m13; also called OROV Np Nb E3 CH8
binding result [4]: binds | binding result [5]: binds

B3
binding result [6]: binds | binding result [7]: binds

B4: biotinylated nanobody SpC7 (AviTag-His9) (VHH)
VHH: QVQLVESGGGLVQAGGSLRLSCAASGRTFSPNAMGWFRQAPGKEREFVSAISWSGGSTTYADSVKGRFTISRDNAKNTVSLQMNSLKPEDTAVYYCAADLEGMVVADRIWGQGTQVTVSS
notes: VHH SpC7 from an immunised llama; also called bSpC7; (biotinylated)bSpC7; not shown: AviTag, C-terminal, kept
binding result [8]: binds | binding result [9]: binds | binding result [10]: binds

B5: AlexaFluor568-conjugated OROV SpE8 nanobody (Cys-His8) (VHH)
VHH: QVQLVESGGGFVRAGDSLRLSCAASGRAFSTYAMGWFRQAPGKEREFVAGITLGSRITQYADSVKGRFTISRDNARQTMYLQMNNLQPEDTADYYCAARGQGSPPLRNRWSADDYNYWGQGLQVTVSS
notes: as the VHH of m21; also called OROV Sp Nb E8 CH8
binding result [11]: binds | binding result [12]: binds
